Experimental findings from the supplement of paper PMC12042874 are described below.

± gives the uncertainty stated by the source.

A short description of this data set: amyloid nucleation score (Sup35N fusion, yeast selection) (log enrichment); library NNK2; higher = more nucleation; inactive = no reads after selection. The procedure, abridged:
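Sup35N fusions to peptides of 20 random codons were expressed in psi-negative yeast, induced 24 hours with 100 μM copper sulfate, and grown 7 days at 30°C on medium lacking adenine and uracil. Input and output plasmid inserts were sequenced by Illumina. The nucleation score is the DiMSum log enrichment of output over input reads, centred on the mode score of non-aggregating sequences. Sequences with under 100 input reads were excluded.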
Regarding WLGIAAM, the amyloid nucleation score was 1.15 ± 0.43. As for WLIKKASRYSN, the figure is -0.608 ± 1.1. As for WLLFMS, the figure is -0.353 ± 0.54; as for WLLILLDISTSDFLQCWIGM, -0.037 ± 0.65. The value for WLMCMPILRSCWMSSG was 0.749 ± 0.22. In the case of WLMKINRT, the amyloid nucleation score came out at 0.129 ± 0.26. Take WLQSETIHDVRSLRWVSIKC: the amyloid nucleation score is 0.043 ± 0.74.

Take WLYSIVCCDRKQSRSGMCDL: the amyloid nucleation score was determined as 4.96 ± 0.069. As for WMIIVA, the figure is 0.582 ± 0.54; as for WMKFTWWRHEYYVVS, -0.195 ± 0.79. The value for WMSFTHLLNTIAVMSYLTVL was -0.249 ± 0.25. As for WNFFLGMAIMGLRRSCL, the figure is 4.1 ± 0.068; as for WNGGQWGAWPLCSNVCAMRS, 7.7 ± 0.062. For WNGQDGQGLVGLKRP, the amyloid nucleation score turned out to be 0.344 ± 0.23.

WNIWFTVCYCKHLSKSKGSD: the amyloid nucleation score was 8.667 ± 0.033.

For WNLRMYLNMGYMVLFNIQF, the amyloid nucleation score came to 3.64 ± 0.099. As for WNLYSLSN, the entry is “inactive”; as for WPGLCYCGMPVRMNWLLVTP, -0.661 ± 1.1. As for WPIMMYGKFVFDRHIHCGAL, the figure is 0.141 ± 0.41; as for WQGEPHPIHFMLSFVLMGW, 0.957 ± 0.21; as for WQNETRMACRWFRRMLSFCI, 1.42 ± 0.4. Consider WQTEFIYSQVSTVGYKRLEG, for which the amyloid nucleation score came to 2.38 ± 0.089. As for WRLCVWPRCGTAKLS, the figure is 0.24 ± 0.32; as for WRSDLAVGFYKEMHSRRING, -0.992 ± 0.36; as for WRYDSWFKRKHCMLLYICQG, 0.003 ± 0.43. On to WRYSRKMDRPFYRAMCYVNI, for which the amyloid nucleation score turned out to be 1.68 ± 0.1. As for WSDLFRRTMCGVW, the figure is 0.624 ± 0.66.

In turn, WSGDFLRYHCHAGDRCMMTM displayed an amyloid nucleation score of -0.78 ± 0.63. The value for WSLSYYISVDEDYGSRGVTM was -1.6 ± 1; that for WSMVQLPFSFIYPRGYLNMG was -0.615 ± 0.64; that for WSRKECG was 0.408 ± 0.4.

Substance WSRSNLCTFSFLGNIISPDR returned an amyloid nucleation score of 4.02 ± 0.073. The value for WSWRGS was 0.629 ± 0.52; that for WTFLIIIWYLDIVV was -1.76 ± 0.48; that for WTQGFYTFSDHAPLVIILLE was “inactive”. As for WTTLGGPVGREENGRRQAEG, the figure is 1.17 ± 0.23; as for WTWGALDRRSGLFEVGGMYF, 0.449 ± 0.47. As for WVDGICCPPRSG, the figure is 0.292 ± 0.29; as for WVFRK, -0.11 ± 0.76; as for WVGSCKNVSFMQVIVWIVRL, -0.121 ± 1.1. Regarding WVLPSLKGCTAVSYIFVFLY, the amyloid nucleation score amounted to 0.398 ± 0.27. As for WVNSKLGLKVSLIEAGVEVS, the figure is -0.116 ± 0.43; as for WVTGPSRPD, 0.387 ± 0.8; as for WVVHLSSGIRNF, “inactive”.

Consider WVVNRTQGYGRLSSGDEEVP, for which the amyloid nucleation score was determined as 1.35 ± 0.37. The value for WVWGIGSFRRSFQCWWWFSN was -1.86 ± 0.73; that for WWFTAIGCSVGRLGSFNR was 2.06 ± 0.16; that for WWVKTVLFKK was -0.947 ± 0.78. The value for WWYPSGLDCFVVSFFRCHCV was -0.107 ± 1; that for WYEYCFCGVMLYRTGDCTRR was 3.96 ± 0.086; that for WYYRLLWYVLSQGRMRGNVQ was -0.011 ± 0.41.

Turning to YADPFSERYNFSALVFPFNI, the amyloid nucleation score entry is “inactive”. As for YAIGDNAA, the figure is 0.111 ± 0.32; as for YAVVFHVPLLV, 5.11 ± 0.079; as for YCDCPVNICRRFPGHEHRGV, “inactive”. YCGFVFPAWGDLLTNGSPAA came in with an amyloid nucleation score of 0.092 ± 0.29. The value for YCLVSIKMCYGYVVGSLVGW was 2.63 ± 0.068. The value for YDERTWGTECMCTSCSCADK was 1.24 ± 0.28; that for YDLSASLVFGMFVNDLRRSR was 5.68 ± 0.096; that for YDRIGCRASTSLSAYPLATA was 2.58 ± 0.076. Turning to YDYFTLSTTGLWLAIYMWWC, the amyloid nucleation score stood at 0.287 ± 0.56. As for YEHLDIGNHKLGRCNRNFIA, the figure is -0.191 ± 1.1; as for YEMFHAILCY, -0.101 ± 0.8. The value for YEPCLRSQNVSS was 0.112 ± 0.79; that for YEVGHPYFDDNCRICSFWWK was 1.82 ± 0.12. The value for YEYVCVLAVACITGRFTLHW was -0.757 ± 0.36.

Regarding YFCERWMLSCIGGLFVNFLY, the amyloid nucleation score stood at 0.168 ± 0.15.

On to YFDGVIWLLTYRIFMANDYS, for which the amyloid nucleation score result was “inactive”. YFELKLKNARVGRFIDWRAT displayed an amyloid nucleation score of 1.77 ± 0.27. YFFITYVPSEAGYRREKWFG came in with an amyloid nucleation score of 7.34 ± 0.082. Consider YFFKRIW, for which the amyloid nucleation score entry was “inactive”. Take YFFRMSWPLGPMTSFRTLYL: the amyloid nucleation score is -0.608 ± 0.4. The value for YFGVLFPVMNWQLSWKNIYW was “inactive”; that for YFKDLKADVRVKMTKLEWPQ was 2.67 ± 0.12. As for YFKTWAICHWFCNWRRLWMN, the figure is 0.305 ± 1; as for YFLLVGAARIRRVKLLQ, -0.22 ± 0.62; as for YFLRYSS, “inactive”. The value for YFLSGRVSEGSAITIRELSP was 2.34 ± 0.091; that for YFNGERFTRFISMEE was -1.21 ± 1.1.

YFNMSLTIPNI came in with an amyloid nucleation score of 0.566 ± 0.47.

Substance YFPPGDA returned an amyloid nucleation score of -0.47 ± 0.39. As for YFPVIRRDAAFYPFSAPYFN, the figure is -2.05 ± 0.77; as for YFRLLISCQNRLLVRKLRAA, -0.021 ± 0.79. Substance YFSFTGPHLDVA returned an amyloid nucleation score of -0.937 ± 0.34. The value for YFTSGNDDSVFDVYRSIWMV was 2.91 ± 0.13; that for YFVSSC was -1.23 ± 0.35; that for YFVVCAHPESYSIINRFATV was 6.311 ± 0.057. YFWSFYEVISFDCYHLIIFS registered an amyloid nucleation score of 0.004 ± 0.18. For the substance YGASRNWQKNSLVASEYQVG, the amyloid nucleation score entry is “inactive”. The value for YGDMAVFVG was 1.07 ± 0.41; that for YGFGHRGNMTAWLSMATKTF was -0.109 ± 0.76.

YGIHTFSRYGVIWSCVSV showed an amyloid nucleation score of -0.64 ± 0.49. As for YGSWSPHEAGVYT, the entry is “inactive”. The value for YGVVYAYYPDQVQWVGCNE was -0.24 ± 0.64; that for YGYIFISCENVRTQRSVIDG was “inactive”. The value for YHKRSPIYSVLYDLDSFK was -1.04 ± 1.1; that for YHLGSSLLLCI was “inactive”; that for YHLKYRGSMGVPCLNTFVWN was 5.15 ± 0.055. YHSFCWANMIHRINSIVRLL: the amyloid nucleation score result is “inactive”. The value for YICVTMPVWIH was 7.536 ± 0.042.

As to YIDGDNYHGILCHSRV, the amyloid nucleation score amounted to 3.86 ± 0.11. Consider YIFGSCGVYLFPPPAKF, for which the amyloid nucleation score turned out to be 6.88 ± 0.078. On to YIGRMVV, for which the amyloid nucleation score was 0.306 ± 0.65.
